Target: the molecule itself
Experiment: crystal structure

B1: ATP synthase c-subunit of Mycobacterium phlei (Fo rotor ring, c9 ring) (natural protein, UniProt A0A5N5V239 1-86, looked up)
chain: MELDPNALITAGALIGGGLIMGGGAIGAGIGDGIAGNALISGIARQPEAQGRLFTPFFITVGLVEAAYFINLAFMALFVFATPGLQ
  stoichiometry N: 9
